B1: TPR t1 (parent)
chain: GACCAAUCUGCCCUCAGAGCUCGAGAACAUCUUCGGAUGCAGAGGAGGCAGGCUUCGGUGGCGCGAUAGCGCCAACGUCCUCAACCUCCAAUGCAUCCCACCACAUGAUGAUGCCUGAAGAGCCUUGGUUUUUUG

Variants of: B1
Assay: polymerase ribozyme fitness, log enrichment relative to wild type (log ratio); higher = more active; in vitro selection for triplet polymerase activity
Summary of the method: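 Both subunits of a heterodimeric triplet polymerase ribozyme were given their own mutant library, built by PCR and transcribed. Each library was annealed with a biotinylated primer, the partner subunit and triplets, incubated frozen at −7 °C, and its extended constructs gel-excised, captured on streptavidin beads and amplified by RT-PCR, all in one round done in triplicate. Fitness is the logarithm of genotype enrichment relative to wild-type enrichment, with replicates averaged by inverse-variance weighting. That logarithm is base 2, and Illumina-sequenced genotypes needed ≥10 input reads and ≥1 read per output.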

Variant | polymerase ribozyme fitness (log ratio)
GACCAAUCUGCCCUCAGAGCUCGAGAACAUCUUCGGAUGCAGAGAAGGCAGGCUUUGGUGGCGCGAUAGCGCCAACGUCCUCAACCUCCAAUGCAUCCCACCACAUGAUGAUGCCUGAAGAGCCUUGGUUUUUUG | -0.103
GACCAAUCUGCCCUCAGAGCUCGAGAACAUCUUCGGAUGCAGAGGAGGCAGGCUUCGGUGGCGUAAUAGCGCCAACGUCCUCAACCUCCAAUGCAUCCCACCACAUGAUGAUGCCUGAAGAGCCUUGGUUUUUUG | -4.3
GACCAAUCUGCCCUCAGAGCUCGAGAACAUCUUCGAGUGCAGAGGAGGCAGCCUUCGGUGGCGCGAUAGCGCCAACGUCCUCAACCUCCAAUGCAUCCCACCACAUGAUGAUGCCUGAAGAGCCUUGGUUUUUUG | -4.05
GACCAAUCUGCCCUCAGAGCUCGAGAACAUCUUCGGAUGCAGAGGAGGCAGGCUUCGGUGGCGCGAUAGCGCCAACGUCCUCAAGCUCCAAUGCAUCCCACCACAUGAUGAUGCCUGAAGAGUCUUGGUUUUUUG | -0.244
GACCUAUCUGCCCUCAGAGCUCGAGAACAUCUUCGGAUGCAGAGGUGGCAGGCUUCGGCGGCGCGAUAGCGCCAACGUCCUCAACCUCCUAUGCAUCCCACCACAUGAUGAUGCCUGAAGAGACUUGGUUUUUUG | -2.16
GACCAAUCUGCCCUCAGAGCUCGAGAACAUCUUCGGAUGCAGAGGAGGCAGGCUUCGGUGGAGCGAUAGCGCCAACGUCCUCAACCUCCAAUGCAUCCCACCACAUGAUGAUGCCUGAAUACCCUUGGUUUUUUG | -1.92
GACCAAUCUGCCCUCAGAGAUCGAGAACAUCUUCGGAUGCAGAGGAGGCAGGCUUAGGUGGCGCGAUAGCGCCAACGUCCUUAACCUCCAAUGCAUCCCACCACAUGAUGAUGCCUGAAGAGCCUUGGUUUUUUG | -3.22
GACCAAUCUGCGCUCAGAGCUCGAGAACACCUUCGGAUGCAGAGGAGGCAGGCUUCGGUGGCGCGAUAGCGCCAACGUCCUCAACCUCCAAUGCAUCCCACCACAUGAUGAUGCCUGAAGAGCCUUGGUUUUUUG | -2.82
GACCAAUCUGCCCUCAGAGCUCGAGAACAUCUUCGGAUGCAGAGGAGGCAGGCUUCGGUGGCGCGAUACCGCCAACGUCCUCAACCUCCAAUGCAUCCCACUACAUGAUGAUGCCUGAAGAGCCUUGGUUUUUUG | -3.02
GACCAAUCUGCCGUCAGAGCUCGAGAACAUCUUCGGAUGCAGAGGAGGCAGGCUUCGGUGGCGCGAUAGCGCCAACGUCCUCAACCUCCAAUACAUCCCACCACAUGAUGAUCCCUGUAGAGCCUUGGUUUUUUG | -5.1
GACCAAUCUGCCCUCAGAGCUCGAGAACAUCUUCGAAUGCUGAGGAGGCAGGCUUGUGUGGCGCGAUAGCGCCAACGUCCUCAACCUCCAAUGCAUCCCACCACAUGAUGAUGCCUGAAGAGCCUUGGUUUUUUG | -3.93
GACCAAUCUGCCCUCAGAGCUCGAGAACAUCUUCGGAUGCAGAGGAGGCAGGCUUCGAUGGCGCGAUAGCGCCAACGUCCUCAUCCUCCAAUGCAUCCCACCACAUGAUGAUGCCUGAAGAGCCUUGGUUUUUUG | -0.731
GACCAAUCUGCCCUCAGAGCUCGAGAACAUAUUCGGAUGCAGAGGAGGCGGGCUGCGGUGGCGCGAUAGCGCCAACGUCCUCAACCUCCAAUGCAUCCCACCACAUAAUGAUGCCUGAAGAGCUUUGGUUUUUUG | -3.71
GACCAAUCUGCCCUCAGAGCUCGAGAACAUCUUCGGAUGCAGAGGAGGCAGGCUUCGGUGGGGCGAUAGCGCCAACGUCCUCAACCUCCAAUGCAUCCCACCACAUGAUGAUGCCUAAAGAGCCUUGGUUUUUUG | -2.78
GACCAAUCUGCCCUCAGAGCUCGAGAACAUCUUCGGAUGCAGAGGAGGCAGGCUUCGGUGGCGCGAUAGCGCCAACGUCCUCAACCUCCAAUGCAUCCCACCACAUGAUGAUGCCGGAAGAGCCUCGGUUUUUUG | -3.51
GACCAAUCUGCCCUCAGAGCUCGAGAACAUCUUCGGAUGCAGAGGAGGCAGGCUUCGGUCGCGCGAUAGCGCCAACGUCCUCAACCUCCAAUGCAACCCACCACAUGAUGAUGCCUGAAGAGCCUUGGUUUUUUG | -1.77
GACCAAUCUGCCCUCAGAGCUCGAGAACAUCUUCGGAUGCAGAGGAGGCAGGCUUCGGUGGCGCGAUAGCGCCAACGUCCUCAACCUCCAAUGCAUCCCACCUCAUGAUGAUGUCUGAAGAGCCUUGGUUUUUUG | -4.99
GACCAAUCUGCCCUCAGAGCUCGAGAACAUCUUCAGAUGCAAAGGAGGCAGGCUUCGGUGACGCGAUAGCGCCAACGUCCUCAACCUCCAAUGCAUCCCACCACAAGAUGAGGCCUGAAGCGCCUUUAUUUUUUG | -6.38
GACCAAUCUGCCCUCAGAGCUCGAGAACAUCUUCGGAUGCAGAGGAGGCUGGCUUUGGUGGCGCGAUAGCGCUAACGUCCUCCACCUCCAAUGCAUCCCACCACAUGAUGAUGCCUGAAGAGCCUUGGUUUUUUG | -1.69
GACCAAUCUGCGCUCAGAGCUCGAGAACAGCUUCGGAUGCAGAGGAGGCAGGCUUCGGUGGCGCGAUAGCGGCAACGUCCUCAACCUCCAAUGCAUCCCAACACAAGAUGAUGCCUGAUGAGUCUUGGUUUUUUG | -5.26
GACCACUCUGCCCUCAGAGCUCGAGAACAUCUUCGGAUGCAGAGGAGGCAGGCUUCCGUGGCGCGAUAGUGCCAACGUCCUCAACCUCCAAUGCAUCCCACCACAUGAUGAUGCCUGAAGAGCCUUGGUUUUUUG | -0.399

Source: the RNAGym collection of RNA variant scans (doi:10.1073/pnas.2313332121)
